From patent US20190161548A1 (published 2019)

How the values were obtained:
[1] = molecular target: T1, His-tagged soluble cynomolgus monkey CTLA-4 (cynomolgus monkey, UniProt G7PL88 36-161); experiment: BIACORE (SPR); His-tagged soluble cynomolgus monkey CTLA-4 captured on anti-PentaHis, binding molecule 12.5-200 nM as analyte; avidity by separate ka/kd 1:1 fit
T1 construct: extracellular domain; also called Cyno CTLA-4
T1 sequence: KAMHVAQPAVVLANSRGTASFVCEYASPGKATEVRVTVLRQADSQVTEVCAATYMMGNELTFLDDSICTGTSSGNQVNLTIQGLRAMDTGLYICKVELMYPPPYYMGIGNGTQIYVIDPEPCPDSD
Protocol: (§1) Briefly, His-tagged soluble CTLA-4 (an extracellular portion of human or cynomolgus monkey CTLA-4 fused to a histidine-containing peptide) was captured on immobilized anti-PentaHis and then different concentrations (12.5-200 nM) of the CTLA-4 binding molecules were passed over the immobilized CTLA-4 proteins. The kinetics of binding were determined via BIACORE® analysis (affinity by 1:1 Langmuir binding model (simultaneous ka/kd); or avidity by separate ka/kd 1:1 fit).

[2] = molecular target: T2, His-tagged soluble human PD-1 (human, UniProt Q15116 25-170); experiment: ELISA; soluble human PD-1 coated; goat anti-human-Fcgamma-HRP, PICO chemiluminescent substrate
T2 construct: also called hPD-1-His; shPD-1
T2 sequence (Q15116 25-170 limits assumed): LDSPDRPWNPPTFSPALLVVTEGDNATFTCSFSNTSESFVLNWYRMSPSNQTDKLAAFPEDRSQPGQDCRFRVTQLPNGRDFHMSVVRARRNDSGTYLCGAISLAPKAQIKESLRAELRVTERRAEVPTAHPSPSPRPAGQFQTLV
Excerpt: FIGS. 8A-8D show the results of ELISA studies measuring the binding of serially diluted binding molecules to human CTLA-4 and human PD-1. […] Goat anti-human-Fc-HRP (1:10,000) was employed as the secondary detection molecule to detect binding. FIGS. 8C-8D show the results of a study on the effect of altering orientations and binding domains on binding. […] Goat anti-human-Fcγ-HRP was employed as the secondary detection molecule to detect binding using PICO chemiluminescent substrate.
Goat anti-human-Fcγ-HRP was employed as the secondary detection molecule to detect binding using PICO chemiluminescent substrate.

[3] = molecular target: T3, human CTLA-4 expressed on the cell surface (human, UniProt P16410 36-223); experiment: FACS on Jurkat cells which express huCTLA-4 but not PD-1, anti-human Fc secondary
T3 construct: also called huCTLA-4; CHO cells expressing human CTLA-4
T3 sequence: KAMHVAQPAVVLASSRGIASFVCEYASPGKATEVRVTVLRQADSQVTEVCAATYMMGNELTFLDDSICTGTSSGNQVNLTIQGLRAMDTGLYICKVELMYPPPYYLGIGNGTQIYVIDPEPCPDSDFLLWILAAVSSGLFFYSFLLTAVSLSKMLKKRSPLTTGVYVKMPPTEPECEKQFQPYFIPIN
Excerpt: Binding of the DART and TRIDENT molecules to human CTLA-4 was detected using anti-human FC secondary Ab (FACS).

[4] = molecular target: T1, His-tagged soluble cynomolgus monkey …; experiment: BIACORE (SPR); His-tagged soluble cynomolgus monkey CTLA-4 captured on anti-PentaHis, binding molecule 12.5-200 nM as analyte; affinity by 1:1 Langmuir binding model
Protocol: as §1

B1: DART D (bispecific antibody, human IgG4 S228P)
chain 1: EIVLTQSPATLSLSPGERATLSCRASESVDNYGMSFMNWFQQKPGQPPKLLIHAASNQGSGVPSRFSGSGSGTDFTLTISSLEPEDFAVYFCQQSKEVPYTFGGGTKVEIKGGGSGGGGQVQLVESGGGVVQPGRSLRLSCAASGFTFSSYTMHWVRQAPGKGLEWVTFISYDGSNKHYADSVKGRFTVSRDNSKNTLYLQMNSLRAEDTAIYYCARTGWLGPFDYWGQGTLVTVSSGGCGGGEVAACEKEVAALEKEVAALEKEVAALEKESKYGPPCPPCPAPEFLGGPSVFLFPPKPKDTLYITREPEVTCVVVDVSQEDPEVQFNWYVDGVEVHNAKTKPREEQFNSTYRVVSVLTVLHQDWLNGKEYKCKVSNKGLPSSIEKTISKAKGQPREPQVYTLPPSQEEMTKNQVSLTCLVKGFYPSDIAVEWESNGQPENNYKTTPPVLDSDGSFFLYSRLTVDKSRWQEGNVFSCSVMHEALHNHYTQKSLSLSLG
chain 2: not shown
notes: Four-chain Fc Region-containing diabody, two PD-1 sites (PD-1 mAb 6-ISQ) and two CTLA-4 sites (CTLA-4 mAb 3), IgG4 (YTE) Fc, E/K-coils
Kd [1]: 4.9 nM

B2: DART C (bispecific antibody)
chain 1: not shown
chain 2: EIVLTQSPATLSLSPGERATLSCRASESVDNYGMSFMNWFQQKPGQPPKLLIHAASNQGSGVPSRFSGSGSGTDFTLTISSLEPEDFAVYFCQQSKEVPYTFGGGTKVEIKGGGSGGGGQVQLVESGGGVVQPGRSLRLSCAASGFTFSSYTMHWVRQAPGKGLEWVTFISYDGSNKHYADSVKGRFTVSRDNSKNTLYLQMNSLRAEDTAIYYCARTGWLGPFDYWGQGTLVTVSSGGCGGGKVAACKEKVAALKEKVAALKEKVAALKE
notes: Four-chain Fc Region-containing diabody, two PD-1 sites (PD-1 mAb 6-ISQ) and two CTLA-4 sites (CTLA-4 mAb 3), IgG4 Fc, E/K-coils
binding result [2]: binds

B3: PD-1 mAb 6 G4P (antibody, human IgG4 S228P, kappa, V domains shown)
VH: QVQLVQSGAEVKKPGASVKVSCKASGYSFTSYWMNWVRQAPGQGLEWIGVIHPSDSETWLDQKFKDRVTITVDKSTSTAYMELSSLRSEDTAVYYCAREHYGTSPFAYWGQGTLVTVSS
VL: EIVLTQSPATLSLSPGERATLSCRASESVDNYGMSFMNWFQQKPGQPPKLLIHAASNQGSGVPSRFSGSGSGTDFTLTISSLEPEDFAVYFCQQSKEVPYTFGGGTKVEIKR
notes: IgG4 with stabilized hinge, kappa light chain; also called the PD-1 antibody; parental anti-PD-1 antibody
EC50 [3]: 6.56 nM

B4: TRIDENT A (bispecific antibody, human IgG4 S228P, kappa)
chain 1: EIVLTQSPATLSLSPGERATLSCRASESVDNYGMSFMNWFQQKPGQPPKLLIHAASNQGSGVPSRFSGSGSGTDFTLTISSLEPEDFAVYFCQQSKEVPYTFGGGTKVEIKGGGSGGGGQVQLVQSGAEVKKPGASVKVSCKASGYSFTSYWMNWVRQAPGQGLEWIGVIHPSDSETWLDQKFKDRVTITVDKSTSTAYMELSSLRSEDTAVYYCAREHYGTSPFAYWGQGTLVTVSSGGCGGGEVAACEKEVAALEKEVAALEKEVAALEKESKYGPPCPPCPAPEFLGGPSVFLFPPKPKDTLYITREPEVTCVVVDVSQEDPEVQFNWYVDGVEVHNAKTKPREEQFNSTYRVVSVLTVLHQDWLNGKEYKCKVSNKGLPSSIEKTISKAKGQPREPQVYTLPPSQEEMTKNQVSLWCLVKGFYPSDIAVEWESNGQPENNYKTTPPVLDSDGSFFLYSRLTVDKSRWQEGNVFSCSVMHEALHNHYTQKSLSLSLG
chain 2: EIVLTQSPATLSLSPGERATLSCRASESVDNYGMSFMNWFQQKPGQPPKLLIHAASNQGSGVPSRFSGSGSGTDFTLTISSLEPEDFAVYFCQQSKEVPYTFGGGTKVEIKGGGSGGGGQVQLVQSGAEVKKPGASVKVSCKASGYSFTSYWMNWVRQAPGQGLEWIGVIHPSDSETWLDQKFKDRVTITVDKSTSTAYMELSSLRSEDTAVYYCAREHYGTSPFAYWGQGTLVTVSSGGCGGGKVAACKEKVAALKEKVAALKEKVAALKE
heavy: QVQLVESGGGVVQPGRSLRLSCAASGFTFSSYTMHWVRQAPGKGLEWVTFISYDGSNKHYADSVKGRFTVSRDNSKNTLYLQMNSLRAEDTAIYYCARTGWLGPFDYWGQGTLVTVSSASTKGPSVFPLAPCSRSTSESTAALGCLVKDYFPEPVTVSWNSGALTSGVHTFPAVLQSSGLYSLSSVVTVPSSSLGTKTYTCNVDHKPSNTKVDKRVESKYGPPCPPCPAPEFLGGPSVFLFPPKPKDTLYITREPEVTCVVVDVSQEDPEVQFNWYVDGVEVHNAKTKPREEQFNSTYRVVSVLTVLHQDWLNGKEYKCKVSNKGLPSSIEKTISKAKGQPREPQVYTLPPSQEEMTKNQVSLSCAVKGFYPSDIAVEWESNGQPENNYKTTPPVLDSDGSFFLVSRLTVDKSRWQEGNVFSCSVMHEALHNRYTQKSLSLSLG
light: not shown
Kd [4]: 260 nM
